# T1: human FOXP2 (truncated, WT) (human, UniProt O15409 214-715)
# T1 sequence: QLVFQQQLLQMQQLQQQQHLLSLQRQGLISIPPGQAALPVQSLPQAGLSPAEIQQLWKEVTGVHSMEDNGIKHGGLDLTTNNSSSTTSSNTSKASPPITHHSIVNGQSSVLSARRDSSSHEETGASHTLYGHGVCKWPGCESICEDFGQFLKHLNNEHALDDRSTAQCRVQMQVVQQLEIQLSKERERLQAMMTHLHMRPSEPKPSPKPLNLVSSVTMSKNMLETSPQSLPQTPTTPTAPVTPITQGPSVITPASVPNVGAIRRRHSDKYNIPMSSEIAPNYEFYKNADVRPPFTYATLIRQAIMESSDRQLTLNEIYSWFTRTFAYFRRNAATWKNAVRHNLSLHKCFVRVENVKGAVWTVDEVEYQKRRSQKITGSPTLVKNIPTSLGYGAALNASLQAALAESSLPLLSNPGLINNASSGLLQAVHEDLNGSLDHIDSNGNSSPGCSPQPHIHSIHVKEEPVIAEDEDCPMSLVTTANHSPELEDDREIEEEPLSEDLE
# T2: chimp FOXP2 (truncated, WT) (chimpanzee, UniProt Q8MJA0 215-716)
# T2 sequence: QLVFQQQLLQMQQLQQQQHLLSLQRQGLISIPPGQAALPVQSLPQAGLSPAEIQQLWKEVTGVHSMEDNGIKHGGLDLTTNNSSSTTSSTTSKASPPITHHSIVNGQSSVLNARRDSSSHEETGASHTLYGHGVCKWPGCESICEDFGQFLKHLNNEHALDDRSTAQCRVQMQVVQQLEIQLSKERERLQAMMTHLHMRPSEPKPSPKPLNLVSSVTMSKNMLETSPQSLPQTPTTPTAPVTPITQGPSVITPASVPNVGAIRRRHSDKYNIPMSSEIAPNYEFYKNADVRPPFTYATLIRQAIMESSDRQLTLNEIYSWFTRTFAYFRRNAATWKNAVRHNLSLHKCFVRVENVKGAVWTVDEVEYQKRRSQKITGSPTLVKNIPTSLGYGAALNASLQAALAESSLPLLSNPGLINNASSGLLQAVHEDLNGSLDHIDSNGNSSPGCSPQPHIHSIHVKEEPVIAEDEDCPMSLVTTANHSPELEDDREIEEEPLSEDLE
# Columns and labels:
# [1] = molecular target: T1, human FOXP2 (truncated, WT); test: MITOMI
# [2] = molecular target: T2, chimp FOXP2 (truncated, WT); test: MITOMI
binder,measurement,setting,value
oligonucleotide #175 (dsDNA) DNA 1: CGCCTGTTACGGCATCAGGGCTTTGGTTTGGGCGGGCTGCTTGTTTACCAATTGTCTCCGGCGGTATGAC DNA 2: GTCATACCGCCGGAGACAATTGGTAAACAAGCAGCCCGCCCAAACCAAAGCCCTGATGCCGTAACAGGCG,binding result,[1],binds
same,binding result,[2],binds
